From a protein production outcome set (Wang et al. 2014)

Test: label from the status in PepcDB records

Sequence | protein production
MNGVELTLTGAEVLLPGGPARRDLCLSGGQVVDAPAGRQVDLSGYLVLPGIVDLHGDGFERHMAPRRGAMKEMGEGVVAAEAELAANGITTAVLAQFWSWEGGLRGPDFAAGVFQAIRQVQGSLVTDLIPQLRFETHLLEDYAALPDRLAEWQVPYVVFNDHLPHDRLAEGRKPPRLAGQALKAGRSPEAHLALLQALHANGPQVPAALDKLCAELHRRGVRMGSHDDHSAEDCATGQGRGLTISEFPETLEAAEATRASGGHVILGSPNVVRGGSHKGNVSALDLITMGLCDALASDYHYPSPRRAALMLVRTGLLDLAAAWALVSSGPARVLGLDDRGELAPGKRADLVILDAQSHRVAATFAAGRVSYMSGDVATRFLA | failed
MNGYIINIRYQQMGRVIYMFFFAIFGIQDKNKHIGNCNNIVCPSCGRLSMYEVYKYYKYFHIFFLPIFKWDVRYIVKTSCCGCLYELDPLVGKEFEKNPSTEIREENLQRIDRYSPFKYCSNCRTEVPVEYSYCPYCGERLLEHHHHHH | failed
MNGYRRKNMRLINTTSSHQHLVKNQLKHTDATLVETYSAGNTDVIFTQAPKHYELLISNKHRAIKDNEIETIREFFLKRKINKNIILLDQLKTLHTANLIEISIPIAD | failed
MNHAITMGIFWHLIGAASAACFYAPFKKVKHWSWETMWSVGGIVSWLILPWAISATLLPDFWAYYRSFSASTLLPVFLFGAMWGIGNINYGLTMRYLGMSMGIGIAIGITLIVGTLMTPIINGQFAVLMHTQGGQMTLLGVLVAVIGVGIVTRAGQLKERKMGIKAEEFNLKKGLLLAVMCGIFSAGMSFAMNAAKPMHDAAAALGVDPLYAALPSYVVIMGGGALVNLGFCFIRLAKVKNLSVKADFSLAKPLIISNLLLSALGGLMWYLQFFFYAWGHASIPAQYDYMSWMLHMSFYVLCGGVVGLVLKEWNNAGRRPVSVLSLGCVVIIIAANIVGLGMAS | failed
MNHPAHHGPTVTPKRRHPDSTGAAPVGIVIATRNRRASLAVTVRNLLALPERPDVLVVDNASTDDTRAMLARDFPQVRVLPLPYNRGALARTHGVRALDTPYVAFSDDDSWWAPGALGAAARHFDDHPRLGLLSARTLVGPGDAADPLNDLLADSPLGTATDLPGTQVLGFLGCAAVARRTAYLDAGGYHPLLFFGGEETLLAYDLAARGWGVTHCPDVIAHHHPHPRPRTGRPAVVRRNALLTAWLRRPLPHALARTRALAADARRDPHARHALRETLTRLPAALRARRPLPPHVERAARLLDGADGPDGPGGAVSLEHHHHHH | not failed
MNHPDLAGKVAIVTGAGAGIGLAVARRLADEGCHVLCADIDGDAADAAATKIGCGAAACRVDVSDEQQIIAMVDACVAAFGGVDKLVANAGVVHLASLIDTTVEDFDRVIAINLRGAWLCTKHAAPRMIERGGGAIVNLSSLAGQVAVGGTGAYGMSKAGIIQLSRITAAELRSSGIRSNTLLPAFVDTPMQQTAMAMFDGALGAGGARSMIARLQGRMAAPEEMAGIVVFLLSDDASMITGTTQIADGGTIAALW | not failed
MNHRSVRGICATLGVLLVIGCSGPDAKKAKFYAKGKELYDKGDYAKAALEFKNAIQIDPKYAEAYHMLGLVEMKKGNIKGAFGNFTKAVELNPQHQEARLQLGRIYLGAGAPDEAMKEAVEVLKINPASEDAQLLKGAVLIARKEKGKARELLEGLVAKGVKKPDAYSLLASIHALDGNAKDAEAILRKGLAINPSSSDLHLTLAGLCVGTGRTDEAISLLQRVVSLEPGRTDHRLKLAALCWDTGKVAEARKALTDLVAIAPEKEENRLQAAGFLAGKGEADEAEKLLKEGIAGKGKNYKLRFALADLYLNTGKGDQAVTLLTETAGLDKASRQESLQAKNALAQIALDRNRVDEAVKLVTEVLKESPKNTDARFLKGNIHMMKGEGAQAVAEYRTVVTDNPQSVPGFIRLAEAHLLNREKNLAFDNLQNALKIDPENRDALVALARYHVMQKDMKNAEAALRKVLAKSPNDLEAKAELGDLFLAAGDLKRAEAEYGELKRKAPGLPVGYVKMGDIYLHRGKSDKALAELEQAVRLNPSSELLAGSLARLYTRLGKFDKAEFLLDQRLKQNPNDAASYTLLGQMNVARNQYGKARQAYEKALSLNGSNWSAANDLAFLLAETGSGADLDRALTLIEKVKQSRPDDPRVLDTVGWIYYKKGNAGKAVEILSQVHRKTGDSPVIDYHLGMASYKAGDKARAKELLTKAMTSKSGFAGREEAVKTLGIIKG | failed
MNHSFRTGITGRRFSAMRVPYGRSRRTHRNGGAGREGTTMTTTTTPTTTTPTSPPTVKAPTVKAPTAKTATAKTADNPVLRVAPASPAAAAAYFGASLAFHADVSDVATALAAGGDPGFVVLDSRSTASWDQGHVPGAVHLPTALIPEQAEQLLDRSVPVVTYCWGPGCNGATRAALALAELGFQVKEMLGGFEYWVREGFEYETWEGRDHRVADPLTAPVDADDCGC | failed
MNHTADNCIFCKIIDGQILCSKVYEDEHVLAFLDISQVTKGHTLVIPKVHKQDIFALTPEIASHIFSVVPKIANAIKAEFNPVGFNLLNNNGEKAGQTVFHFHLHLIPRYGENDGFGAVWKSHQNEYTMENLQNIASTIANSVK | not failed
MNHTLQFPKAPEHLLQALNEVIPKCKLMAQQLPETAISLWLIPPVFPTERLDDDIIRRIWSDTPYWIFCWASGLAMAQWLLAEPHHVKDKVVLDFGAGSGVVAIAAKMAGAKRVICCDIDETSLNACRENALLNNVELEYLNDLYLSESVDILLAADVLYDQSNRFFLDEFLKFAPEVWVADSRVKNFSHPGYIKIDERSATTWPDLDEAKEFRNVSFYKTL | failed
MNIDAVVEFTKKHLKDEKTGHDFYHGQRVANLASKMYLEDHPDAHADSRMVAIIKSGGYLHDTIDEKVCDNPDKVIAEIKELLPEVGFTDLEVWDILFTIQHMSFSANIEHHYHLPLSGQYVQDADRLESLGAMGIARAFTYGGKHGNKIYDPEIKPEKLVSHDQYRNHVETTINHFYEKLFHLADTMNTPAMKKEANRRTEYMHNFVQEFMNEWNVLEHHHHHH | not failed
MNIDLSAIFAQYEALVAETDALFERVRALHPDCVTCGLGCSDCCHAMFDLSLVEAMYLNGKFAASFDFGPERSAVLERASDADRHAYRIKRRMYRESEDGRPAEDILAEAARERVRCPLLGEGDACVLYAHRPITCRLYGIPTAIGGKGHTCGKTAFRAGEKYPTVAVDRIQDRLAALSKEIAVAVGSRFSELHQVYVPVSMALLTRYDDAYLGIGKPKRDD | failed
MNIGLLEALDQLEEEKGISKEEVIPILEKALVSAYRKNFGNSKNVEVVIDRNTGNIKVYQLLEVVEEVEDPATQISLEEAKKIDPLAEVGSIVKKELNVKNFGRIAAQTAKQVLIQRIRELEKEKQFEKYSELKGTVTTAEVIRVMGEWADIRIGKLETRLPKKEWIPGEEIKAGDLVKVYIIDVVKTTKGPKILVSRRVPEFVIGLMKLEIPEVENGIVEIKAIAREPGVRTKVAVASNDPNVDPIGACIGEGGSRIAAILKELKGEKLDVLKWSDDPKQLIANALAPATVIEVEILDKENKAARVLVPPTQLSLAIGKGGQNARLAAKLTGWKIDIKPIMNL | not failed
MNIGNITISVIIPVYNASVTLPHCLESLHKQTYRNLELLFVDDCSTDESLYILTSYAEQFAEIDFTIRILQHERNRGVAAARNTALKCATGDYIYYVDADDSIEPHTLECLVNEINHKGLDIVGHEWYLTFNSNARYMKQPAYTTSVEALRKMMGGVMRWNLWLFLVRRSLYVENDIRFTEGLNMGEDMMVMMKLFICAGKVGIVHRPFYHYRQSNPESLTKIYSQEHIIQVANNVYEVEKYVNASAYADSLIEFIPFLKLNIKLPLLITDDKSHYEQWLECFPEANCYVMNNKLLPLRTRIIQWMAVKRYFILLRLYYRTVFKLVYGIIYKLEHHHHHH | failed
MNIKINEKWREVKENCTVYALKNEEFPDSHVIVLNGFPLVEDKKLKDGDRIVFIKKGIMPNKEELEELMVSRHTPGIHEKLKRIKVLIAGCGGLGSNIAISLGRIGVGSISLVDFDIVEPSNLNRQQYYIEDIGEFKVTALKRNLIRINPFIKIEALNLKLSEDNMGILQGADIIIEAFDNPDYKALLANYVLGNMKDKFLISSSGMAGFYDSNLIKTKQITDKFYICGDLVNEAKEGCGLMAPRVAICANHMANLVIDIAINKIEFQK | failed
